Experimental data: paper PMC10440475 (Heliyon, 2023)
Several values for one entry are separate records, joined by “and”; a condition that tells them apart may be missing. Equal values may be shown once.

Molecular target: the molecule itself
Test: PFO-PAGE

B1: ORF3aΔN-eGFP (N-terminus truncated SARS-CoV-2 ORF3a with C-terminal eGFP) (domain or fragment)
chain: PFGWLIVGVALLAVFQSASKIITLKKRWQLALSKGVHFVCNLLLLFVTVYSHLLLVAAGLEAPFLYLYALVYFLQSINFVRIIMRLWLCWKCRSKNPLLYDANYFLCWHTNCYDYCIPYNSVTSSIVITSGDGTTSPISEHDYQIGGYTEKWESGVKDCVVLHSYFTSDYYQLYSTQLSTDTGVEHVTFFIYNKIVDEPEEHVQIHTIDGSSGVVNPVMEPIYDEPTTTTSVPL
For B1, the “stoichiometry N” value was 5 and 2 and 3 and 4.
